Tests used:
Clr4 = assay: Radioactive in vitro automethylation of Clr4 WT and ARL variants (autoradiography); assay type: biochemical, Schizosaccharomyces pombe; details: for decrease in automethylation compared to the WT enzyme (fold): autoradiography, normalized to WT; for Automethylation level (relative value): relative to WT, mean ± S.D., two to four independent experiments, results with and without peptide combined, 0.45 µM Clr4, 2.4 µM H3K9me0 peptide, 0.76 µM [methyl-3H]-AdoMet, 50 mM Tris pH 8.8, 3 h, 30 °C; for change in automethylation, in words: compared to WT (triple mutant: compared to A454R)
Source text: (§1) After the methylation reactions, the samples were separated by gel electrophoresis and the transfer of the radioactively labeled methyl groups from the cofactor to the respective target lysine residues in Clr4 and in the H3K9 peptide was visualized by autoradiography, analyzed quantitatively and normalized to WT (Figure 2 and Supplementary Table S1).
(§2) Figure 2 Methyltransferase activity and automethylation of different engineered Clr4 variants compared to wild type (WT). […] The red asterisks indicate the Clr4 automethylation signal. […] The mean values are indicated by the bars and the individual data points as circles. […] The p-values of the differences in automethylation and methyltransferase activities between WT and mutants are listed in Supplementary Table S1.
(§3) The reactions were stopped by the addition of Tricine-SDS-PAGE loading buffer followed by heating to 95 °C for 5 min. […] The signals of the transferred radioactively labeled methyl groups were detected by autoradiography using a Hyperfilm^TM high-performance autoradiography film (Merck), which was placed on the dried gels at −80 °C in the dark. Films were developed with an Optimax Typ TR machine after different exposure times. For quantification, the signal intensities were measured with ImageJ (https://imagej.nih.gov/ij/) and analyzed with Microsoft Excel (Microsoft, Redmond, WA, USA).

[1] = system: unmodified H3K9 peptide (H3K9me0); assay: Radioactive in vitro methyltransferase activity of Clr4 variants on H3K9 peptide; assay type: biochemical; details: for change in methyltransferase activity on the H3K9 peptide, in words: compared to WT (triple mutant: compared to A454R), low AdoMet (0.76 µM); for Methyltransferase activity (relative value): relative to WT, mean ± S.D., two to four independent experiments, 0.45 µM Clr4, 2.4 µM H3K9me0 (1–19) peptide, 0.76 µM [methyl-3H]-AdoMet, 50 mM Tris pH 8.8, 3 h, 30 °C
Source text: as §1, §2, §3

Clr4 WT [2] = target: T1, Clr4 WT (Schizosaccharomyces pombe, UniProt O60016); assay: MALDI-TOF detection of Clr4 WT methylation of histone peptides; assay type: biochemical; details: 4.5 µM peptide, 1 mM unlabeled AdoMet
T1 construct: The plasmid encoding for SUMO- and His-tagged full-length Clr4 WT and different mutant variants were transformed into E. coli; SUMO; His; made in house; host or cells: E. coli BL21-CodonPlus (DE3)
T1 sequence (O60016 whole entry): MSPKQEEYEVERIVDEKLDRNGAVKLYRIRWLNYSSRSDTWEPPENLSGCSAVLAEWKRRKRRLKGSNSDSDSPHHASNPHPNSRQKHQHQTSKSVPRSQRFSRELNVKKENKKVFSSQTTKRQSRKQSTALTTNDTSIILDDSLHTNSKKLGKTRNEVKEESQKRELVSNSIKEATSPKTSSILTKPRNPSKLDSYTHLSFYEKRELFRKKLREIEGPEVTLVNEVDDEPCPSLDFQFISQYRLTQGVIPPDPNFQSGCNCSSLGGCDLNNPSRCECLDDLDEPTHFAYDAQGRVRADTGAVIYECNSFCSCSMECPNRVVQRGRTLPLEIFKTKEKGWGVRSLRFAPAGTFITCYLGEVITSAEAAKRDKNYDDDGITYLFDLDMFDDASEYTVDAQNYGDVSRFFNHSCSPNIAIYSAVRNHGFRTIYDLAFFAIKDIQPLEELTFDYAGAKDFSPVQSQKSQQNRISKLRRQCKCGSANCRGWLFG
Description: (§4) The reactions were halted by the addition of 0.1% trifluoroacetic acid (TFA). All the samples were cleaned using C18 tips (Agilent Technologies, Santa Clara, CA, USA). The eluted samples were spotted on an anchor chip plate and allowed to dry completely. Later, 1 μL of HCCA matrix (0.7 mg/mL α-cyano-4 hydroxycinnamic acid dissolved in 85% acetonitrile, 0.1% TFA, 1 mM ammonium dihydrogen phosphate) was added to dried sample and allowed to dry again. After that, the dried spots on the anchor plate were analyzed using an Autoflex Speed MALDI-TOF mass spectrometer (Bruker-Daltonics, Billerica, MA, USA). The mass spectra were collected using the Flex control software (Bruker-Daltonics). For calibration, the peptide calibration standard (Bruker-Daltonics) with peptides ranging from 700 to 3200 Da was used. The collected spectra were then analyzed with Flex analysis software (Bruker Daltonics). The relative methylation levels were determined by using the corresponding peak intensities of the substrate peptide in different methylation states.

Clr4 K455R/K472R = Clr4 K455R/K472R (Schizosaccharomyces pombe, UniProt O60016, K455R/K472R); assay: AdoMet dependence of Clr4 K455R/K472R activity (MALDI-TOF); assay type: biochemical
Chain of Clr4 K455R/K472R (O60016 whole entry K455R/K472R): as the sequence (O60016 whole entry) above, with K455R, K472R counted along it
Description: (§5) To investigate the Clr4 AdoMet dependency and the role that could be played by ARL automethylation in sensing AdoMet concentrations, steady-state kinetics were conducted at variable AdoMet concentrations. […] Afterwards, the methylation products were detected by MALDI-TOF mass spectrometry (Supplementary Figure S5). The Clr4 reaction rates were derived from the analysis of relative peak intensities of the different methylated histone peptides (Figure 6A,B).
(§6) Figure 6 AdoMet dependence of the activity of Clr4 WT and the K455R/K472R mutant. Fractions of methylated products observed with increasing AdoMet concentrations (2–50 µM) for Clr4 WT (A) or the automethylation-deficient K455R/K472R mutant (B). Data were obtained from the analysis of corresponding relative peak intensities measured by MALDI-TOF mass spectrometry in two to four independent experiments (see Supplementary Figure S5).
as §4

Clr4 WT [3] = target: T1, Clr4 WT; assay: AdoMet dependence of Clr4 WT activity (MALDI-TOF); assay type: biochemical; details: 30 °C, Hill model
Description: as §5, §6
The reactions were halted by the addition of 0.1% trifluoroacetic acid (TFA). […] After that, the dried spots on the anchor plate were analyzed using an Autoflex Speed MALDI-TOF mass spectrometer (Bruker-Daltonics, Billerica, MA, USA). […] The collected spectra were then analyzed with Flex analysis software (Bruker Daltonics). The relative methylation levels were determined by using the corresponding peak intensities of the substrate peptide in different methylation states.

[4] = system: C[S+](CC[C@H](N)C(=O)[O-])C[C@H]1O[C@@H](n2cnc3c(N)ncnc32)[C@H](O)[C@@H]1O; assay: AdoMet dependence of Clr4 K455R/K472R activity (MALDI-TOF); assay type: biochemical, Schizosaccharomyces pombe; details: other: Clr4 K455R/K472R 0.9 µM, H3K9me1 peptide 4.58 µM, AdoMet 0–50 µM, 50 mM Tris pH 8.8, 3 h, 30 °C, Michaelis–Menten model, mean ± SEM, two to four independent experiments
Description: as §5, §6, §4

Clr4 A454R = target: T2, Clr4 A454R (Schizosaccharomyces pombe, UniProt O60016, A454R); assay type: biochemical
T2 construct: The plasmid encoding for SUMO- and His-tagged full-length Clr4 WT and different mutant variants were transformed into E. coli; SUMO; His; made in house; host or cells: E. coli BL21-CodonPlus (DE3)
T2 sequence (O60016 whole entry A454R): as the sequence (O60016 whole entry) above, with A454R counted along it
Description: A reaction of WT enzyme incubated with 400 µM peptide was loaded on each gel as reference for the quantitative analysis.
The methylation reactions were performed using a peptide concentration range (25–400 µM) in methylation buffer (50 mM Tris pH 8.8, 10 mM MgCl2, 20 mM KCl, 1 mM DTT) supplemented with 0.76 µM radioactively labeled AdoMet (PerkinElmer) and 0.3 µM Clr4 WT or variants for 1 h at 30 °C.

[5] = target: Clr4 wild type, SUMO- and His-tagged full-length (S. pombe, UniProt O60016 1-490); assay: cell-based or functional assay
[6] = target: Clr4 A454R mutant, SUMO- and His-tagged full-length (S. pombe, UniProt O60016 1-490, A454R); assay: cell-based or functional assay

In the case of “K455R: automethylation-deficient Clr4 mutant”, the “decrease in automethylation compared to the WT enzyme (fold)” value (Clr4) is reported as “about 1.4 fold”, the “Automethylation level (relative value)” value (Clr4) is reported as 0.7 ± 0.08 and the “change in methyltransferase activity on the H3K9 peptide, in words” value (“change in methyltransferase activity” for short) [1] is reported as “not accompanied by a corresponding reduction in activity”. For the same molecule, the “Methyltransferase activity (relative value)” value [1] was 1.1 ± 0.008.

For `C[C@H](N)C(=O)N[C@@H](CCCNC(=N)N)C(=O)N[C@H](C(=O)N[C@@H](CCCCN)C(=O)N[C@@H](CCC(N)=O)C(=O)N[C@H](C(=O)N[C@@H](C)C(=O)N[C@@H](CCCNC(=N)N)C(=O)N[C@@H](CCCCN)C(=O)N[C@@H](CO)C(=O)N[C@H](C(=O)NCC(=O)NCC(=O)N[C@@H](CCCCN)C(=O)N[C@@H](C)C(=O)N1CCC[C@H]1C(=O)N[C@@H](CCCNC(=N)N)C(=O)N[C@@H](CCCCN)C(=O)N[C@@H](CCC(N)=O)C(N)=O)[C@@H](C)O)[C@@H](C)O)[C@@H](C)O` [H3K9me0], the “H3K9me1 product fraction after overnight incubation” value (Clr4 WT [2]) was 12%, the “H3K9me2 product fraction after overnight incubation” value (Clr4 WT [2]) was 42% and the “total methylation after overnight incubation” value (Clr4 WT [2]) was 54%.

“K455R/K472R: ARL automethylation-deficient Clr4 mutant” was tested, and the “decrease in automethylation compared to the WT enzyme (fold)” value (Clr4) was roughly 2.2 fold, the “Automethylation level (relative value)” value (Clr4) was 0.46 ± 0.15 and the “change in methyltransferase activity” value [1] was “not accompanied by a corresponding reduction in activity”. The “Methyltransferase activity (relative value)” value [1] was 0.91 ± 0.08 and the “reaction rate response towards increasing AdoMet concentration, K455R/K472R” value (Clr4 K455R/K472R; AdoMet 2–50 µM, H3K9me1 peptide, 3 h, 30 °C, Michaelis–Menten model) was “regular hyperbolic shape”.

With “D456S/F457T: Clr4 variant, D456 and F457 were mutated to S and T” the “change in automethylation, in words” value (Clr4) was “no significant change in automethylation”, the “Automethylation level (relative value)” value (Clr4) was 1.2 ± 0.33 and the “change in methyltransferase activity” value [1] was “no significant change in automethylation and methyltransferase activity”. The “Methyltransferase activity (relative value)” value [1] was 1.2 ± 0.14.

With “Clr4 WT: S. pombe H3K9 protein lysine methyltransferase Clr4, wild type” the “reaction rate response towards increasing AdoMet concentration, Clr4 WT” value (Clr4 WT [3]; AdoMet 2–50 µM, H3K9me1 peptide, 3 h) was “sigmoidal response”.

In the case of `C[S+](CC[C@H](N)C(=O)[O-])C[C@H]1O[C@@H](n2cnc3c(N)ncnc32)[C@H](O)[C@@H]1O` (stereo partly drawn) [AdoMet, S-adenosyl-L-methionine], the “N (Hill coefficient), Clr4 WT” value (Clr4 WT [3]; Clr4 WT 0.9 µM, H3K9me1 peptide 4.58 µM, AdoMet 0–50 µM, pH 8.8, 3 h, mean ± SEM) is reported as 1.87 ± 0.19, the “n, Clr4 K455R/K472R” value (Clr4 K455R/K472R; mutant data were fitted to the Michaelis–Menten model corresponding to an n-value of 1 (not a free parameter)) is reported as 1 and the “rel. vmax (AdoMet), Clr4 K455R/K472R” value (Clr4 K455R/K472R; relative to WT activity, Clr4 K455R/K472R 0.9 µM, H3K9me1 peptide 4.58 µM, AdoMet 0–50 µM, pH 8.8, 3 h, 30 °C, Michaelis–Menten model, mean ± SEM) is reported as 0.71 ± 0.08.

“Clr4 K455R/K472R (Schizosaccharomyces pombe 972h-; K455R/K472R)” gave a Km [4] of 13.6 ± 1.0 µM.

With “K455M: Clr4 variant in which the target lysine in the ARL, K455, was mutated to M” the “change in automethylation, in words” value (Clr4) was “strong reduction in automethylation (about four-fold”, the “Automethylation level (relative value)” value (Clr4) was 0.23 ± 0.05 and the “reduction in H3K9 peptide methyltransferase activity” value ([1]; less active than WT, p-value = 0.0004) was 30%. For the same molecule, the “Methyltransferase activity (relative value)” value [1] was 0.7 ± 0.09.

With “A454R: Clr4 variant, A454 in the ARL was mutated to R” the “stronger automethylation compared to Clr4 WT (fold)” value (Clr4; p-value = 0.012) was “about 3.4 fold”, the “Automethylation level (relative value)” value (Clr4) was 3.4 ± 1.05 and the “change in methyltransferase activity” value [1] was “approximately two-fold higher methyltransferase activity”. The “Methyltransferase activity (relative value)” value [1] was 1.9 ± 0.33, the “activity at low concentrations of both histone peptides” value (Clr4 A454R; A454R compared to WT, H3K9me0 and H3K9me1, Figure S4) was “higher activity compared to the WT” and the “Vmax difference A454R vs WT” value (Clr4 A454R; histone peptides, AdoMet 0.76 µM) was “minor”.

B1: A454R/D456S/F457T: Clr4 triple mutant, all of the exchanges combined in one mutant (protein, UniProt O60016 1-490, looked up, variant A454R D456S F457T)
Histone-lysine …: MSPKQEEYEVERIVDEKLDRNGAVKLYRIRWLNYSSRSDTWEPPENLSGCSAVLAEWKRRKRRLKGSNSDSDSPHHASNPHPNSRQKHQHQTSKSVPRSQRFSRELNVKKENKKVFSSQTTKRQSRKQSTALTTNDTSIILDDSLHTNSKKLGKTRNEVKEESQKRELVSNSIKEATSPKTSSILTKPRNPSKLDSYTHLSFYEKRELFRKKLREIEGPEVTLVNEVDDEPCPSLDFQFISQYRLTQGVIPPDPNFQSGCNCSSLGGCDLNNPSRCECLDDLDEPTHFAYDAQGRVRADTGAVIYECNSFCSCSMECPNRVVQRGRTLPLEIFKTKEKGWGVRSLRFAPAGTFITCYLGEVITSAEAAKRDKNYDDDGITYLFDLDMFDDASEYTVDAQNYGDVSRFFNHSCSPNIAIYSAVRNHGFRTIYDLAFFAIKDIQPLEELTFDYAGRKSTSPVQSQKSQQNRISKLRRQCKCGSANCRGWLFG
B1 was tested, and the “change in automethylation, in words” value (Clr4) was “no significant difference from the A454R single mutant”, the “Automethylation level (relative value)” value (Clr4) was 2.7 ± 0.66 and the “change in methyltransferase activity” value [1] was “no significant difference from the A454R single mutant”. For the same molecule, the “Methyltransferase activity (relative value)” value [1] was 1.7 ± 0.02.

B2: H3K9me1-biotin (1–18) peptide (peptide, UniProt P68431 2-19, looked up)
peptide: ARTKQTARKSTGGKAPRK
modifications: monomethyl-lysine at 9; biotin (end not stated)
In the case of B2, the “Km of peptide methylation (steady-state kinetics, Michaelis–Menten fit, 0.76 µM AdoMet)” value [5] is reported as 16.4 µM and the “Km of peptide methylation (steady-state kinetics, Michaelis–Menten fit, 0.76 µM AdoMet)” value [6] is reported as 5.5 µM.
